From patent US20180311371A1 (Hoffmann-La Roche, published 2018) come the findings set out here.

The target in assay [1] is T1, human TPBG (trophoblast glycoprotein), full length, cell surface expressed (human, UniProt Q13641 32-420).
T1 sequence: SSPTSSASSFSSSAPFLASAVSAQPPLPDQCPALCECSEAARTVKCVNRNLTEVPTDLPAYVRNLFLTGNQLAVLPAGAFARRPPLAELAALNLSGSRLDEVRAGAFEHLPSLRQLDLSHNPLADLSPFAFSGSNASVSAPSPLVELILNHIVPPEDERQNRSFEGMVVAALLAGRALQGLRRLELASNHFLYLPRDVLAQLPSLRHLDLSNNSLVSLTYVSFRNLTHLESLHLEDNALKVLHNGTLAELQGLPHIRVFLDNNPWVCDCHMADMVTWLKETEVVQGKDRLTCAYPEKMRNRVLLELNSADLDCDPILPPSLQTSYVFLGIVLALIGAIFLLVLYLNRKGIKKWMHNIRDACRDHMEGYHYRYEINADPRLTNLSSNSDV
Nature of the assay: cell-based or functional assay.

For assay [2], the target named is T1, human TPBG (trophoblast glycoprotein), …. The experiment in a line: cell-based or functional assay. This is another data set of the same source.
In assay [3] the target is T2, minipig TPBG, full length, cell surface expressed on CHO-K1 cells (minipig).
T2 chain: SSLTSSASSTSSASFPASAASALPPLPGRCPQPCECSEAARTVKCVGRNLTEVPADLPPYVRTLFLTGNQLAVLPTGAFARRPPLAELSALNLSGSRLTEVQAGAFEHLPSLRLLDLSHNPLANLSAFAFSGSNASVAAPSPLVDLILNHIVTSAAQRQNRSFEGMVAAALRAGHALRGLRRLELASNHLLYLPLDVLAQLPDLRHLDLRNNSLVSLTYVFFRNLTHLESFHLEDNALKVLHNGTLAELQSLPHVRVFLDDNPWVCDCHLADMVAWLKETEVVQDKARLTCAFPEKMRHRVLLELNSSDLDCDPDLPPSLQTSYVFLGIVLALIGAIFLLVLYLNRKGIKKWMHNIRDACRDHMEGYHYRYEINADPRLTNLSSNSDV
Nature of the assay: cell-based or functional assay.

The target in assay [4] is T1, human TPBG (trophoblast glycoprotein), …. Nature of the assay: cell-based or functional assay. This is another data set of the same source.
The target is the same in assay [5]. The experiment in a line: cell-based or functional assay. The source holds these as a separate data set.
The target is the same in assay [6]. Nature of the assay: cell ELISA on MCF7 cells; titrated from 5 µg/ml. In general terms: An ELISA detects its analyte on a solid surface through an enzyme-linked reagent.
In assay [7] the target is T3, huTPBG (recombinant human TPBG immobilised on the Biacore chip) (human, UniProt Q13641 32-355, limits assumed).
T3 construct: also called human TPBG antigen
T3 sequence: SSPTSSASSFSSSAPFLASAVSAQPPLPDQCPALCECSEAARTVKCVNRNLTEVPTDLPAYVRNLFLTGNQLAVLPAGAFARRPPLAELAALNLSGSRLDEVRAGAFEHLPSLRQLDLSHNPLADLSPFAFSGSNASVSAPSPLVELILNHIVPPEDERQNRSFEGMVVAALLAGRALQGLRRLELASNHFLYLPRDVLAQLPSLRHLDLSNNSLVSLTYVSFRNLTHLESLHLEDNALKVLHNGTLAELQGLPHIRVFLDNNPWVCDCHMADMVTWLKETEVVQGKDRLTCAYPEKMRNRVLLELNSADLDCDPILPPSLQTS
The experiment in a line: SPR Biacore T200; huTPBG amine-coupled, Fab injected. For orientation: Surface plasmon resonance follows binding to a sensor surface in real time, without labels.

In assay [8] the target is T1, human TPBG (trophoblast glycoprotein), …. Nature of the assay: flow cytometry on SW620 clone 4 cells; ratio of MFI; replicate 1.
Assay [9] deals with T4, recombinant extracellular domain of minipig TPBG (Biacore analyte) (minipig).
T4 chain: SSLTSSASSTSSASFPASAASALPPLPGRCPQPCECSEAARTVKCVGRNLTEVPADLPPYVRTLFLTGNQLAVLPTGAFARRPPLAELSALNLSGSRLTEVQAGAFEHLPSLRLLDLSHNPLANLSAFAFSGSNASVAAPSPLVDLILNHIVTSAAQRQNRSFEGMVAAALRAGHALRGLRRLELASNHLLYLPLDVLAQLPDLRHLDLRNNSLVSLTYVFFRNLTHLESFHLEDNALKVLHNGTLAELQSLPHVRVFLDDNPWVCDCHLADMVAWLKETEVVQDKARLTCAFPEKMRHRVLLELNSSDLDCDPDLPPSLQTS
Nature of the assay: SPR Biacore T200; Fab captured by anti-huFab, minipig TPBG injected.

Assay [10] has as its target T5, minipig TPBG extracellular domain, His6Avi, biotinylated (minipig, biotinylated).
T5 construct: also called mpTPBG; minipig TPBG-AviHis
T5 chain: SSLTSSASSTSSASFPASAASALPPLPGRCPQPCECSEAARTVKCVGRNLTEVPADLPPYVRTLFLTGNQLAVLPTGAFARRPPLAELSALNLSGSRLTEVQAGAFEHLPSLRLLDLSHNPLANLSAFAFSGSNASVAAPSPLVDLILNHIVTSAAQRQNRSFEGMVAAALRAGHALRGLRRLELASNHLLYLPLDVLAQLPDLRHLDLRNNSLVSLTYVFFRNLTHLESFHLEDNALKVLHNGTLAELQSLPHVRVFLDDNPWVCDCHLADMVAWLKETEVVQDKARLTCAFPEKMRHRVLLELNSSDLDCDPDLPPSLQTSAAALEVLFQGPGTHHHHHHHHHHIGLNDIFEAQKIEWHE
Nature of the assay: ELISA; biotinylated TPBG-AviHis on streptavidin plate; Fab titrated from 2 µg/ml.

B1: anti-TPBG antibody 091, Fab fragment (Fab, V domains shown)
VH: EVHLLESGGGLVHPGGSLRLSCAASGFTFRSDAMHWVRQAPGKGLEWVSGVSGSGGSPYYADSVKGRFTISRDDSKTTLYLQMNSLRAEDTAVYYCATGGSIAGSYYYYPMDVWGQGTTVTVSS
VL: DIQMTQSPSSLSASVGDRVTITCQASQDISNYLNWYQQKPGKAPKLLIYAASTLQIGVPSRFSGSGSGTDFTFTISSLQPEDFATYYCQQANSFPLTFGGGTKVEIK
notes: also called Fab2
In the case of B1, in [1], the “internalization after 0.5 h, MCF7 cells” value is 16%; the “internalization after 1.0 h, MCF7 cells” value was 33%; the “internalization after 2.0 h, MCF7 cells” value is 42%. In assay [2], the “EC50 cytotoxicity, Fab + anti-kappa-Fab-PE, CHO-K1/human TPBG, replicate 1” value is 0.23 nM and the “EC50 cytotoxicity, Fab + anti-kappa-Fab-PE, CHO-K1/human TPBG, replicate 2” value was found to be 0.24 nM. In assay [3], the “EC50 cytotoxicity, Fab + anti-kappa-Fab-PE, CHO-K1/minipig TPBG, replicate 1” value is 1.05 nM and the “EC50 cytotoxicity, Fab + anti-kappa-Fab-PE, CHO-K1/minipig TPBG, replicate 2” value was 1.2 nM. In addition, in assay [4], the “EC50 cytotoxicity, Fab-PE sandwich construct, MCF7” value was 0.414 nM; the “X-fold higher potency compared to TPBG(H8)PE, MCF7, first experiment” value turned out to be 3 fold; the “X-fold higher potency compared to TPBG(H8)PE, MCF7, second experiment” value was found to be 2.7 fold. For the same molecule, in assay [5], the “EC50 cytotoxicity, Fab-PE sandwich construct, H1975, replicate 1” value was 0.166 nM; the “EC50 cytotoxicity, Fab-PE sandwich construct, H1975, replicate 2” value was 0.129 nM; the “EC50 cytotoxicity, Fab-PE sandwich construct, H1975, replicate 3” value turned out to be 0.182 nM. For the same molecule, the midpoint of the response in assay [6], the EC50, lay at 0.014 µg/mL. Besides, in assay [7], the dissociation constant (Kd) was 0.0558 nM, the koff is 2.72e-05 s⁻¹ and the kon stood at 487000 M⁻¹ s⁻¹. In addition, in [8], the “Fold change pH 7.2 vs pH 5.5” value was found to be 0.9 fold. In assay [9], the Kd turned out to be 1.74 nM, the koff is 0.000205 s⁻¹ and the kon came out at 118000 M⁻¹ s⁻¹. The same molecule yielded a concentration for a half-maximal effect (EC50) in assay [10] of 0.0618 µg/mL.

Broadly, the EC50 is the concentration giving half of the maximal effect. The term Kd denotes the free concentration of one partner at which half of the binding sites on the other are occupied at equilibrium, for simple one-to-one binding. As usually defined, the koff is a measure of how fast the partners let go of each other. Broadly, the kon is a measure of how fast the partners come together.
